Laboratory results reported in patent publication US20200158726A1 (NORDIC BIOSCIENCE A S, published 2020).
No end group written: not given here.

Columns and labels:
[1] = molecular target: T1, selection peptide SFSGFLVAPM-COOH (human); experiment: competitive peptide assay (preliminary assays); the peptide also blocked the Western blot bands
T1 construct: Synthetic peptide; also called calibrator peptide
T1 peptide: SFSGFLVAPM-OH

[2] = molecular target: T2, deselection peptide DMDYLPRVPNQ; experiment: competitive peptide assay against the biotinylated screening peptide
T2 construct: Synthetic peptide
T2 peptide: DMDYLPRVPNQ

[3] = molecular target: T3, truncated peptide SFSGFLVA; experiment: as above
T3 construct: Synthetic peptide; the selection peptide without its two C-terminal residues PM
T3 peptide: SFSGFLVA

collagen type X alpha 1 = molecular target: T4, collagen type X alpha 1 (human, UniProt Q03692 19-680); experiment: Western blot of U2-OS cell lysate, antibody at 1 ug/ml
T4 construct: Endogenous protein in U2-OS lysates, seen as bands of about 59 kDa (monomer), 76 kDa and 120 kDa (dimer); also called type X collagen; Col10
T4 sequence (Q03692 19-680): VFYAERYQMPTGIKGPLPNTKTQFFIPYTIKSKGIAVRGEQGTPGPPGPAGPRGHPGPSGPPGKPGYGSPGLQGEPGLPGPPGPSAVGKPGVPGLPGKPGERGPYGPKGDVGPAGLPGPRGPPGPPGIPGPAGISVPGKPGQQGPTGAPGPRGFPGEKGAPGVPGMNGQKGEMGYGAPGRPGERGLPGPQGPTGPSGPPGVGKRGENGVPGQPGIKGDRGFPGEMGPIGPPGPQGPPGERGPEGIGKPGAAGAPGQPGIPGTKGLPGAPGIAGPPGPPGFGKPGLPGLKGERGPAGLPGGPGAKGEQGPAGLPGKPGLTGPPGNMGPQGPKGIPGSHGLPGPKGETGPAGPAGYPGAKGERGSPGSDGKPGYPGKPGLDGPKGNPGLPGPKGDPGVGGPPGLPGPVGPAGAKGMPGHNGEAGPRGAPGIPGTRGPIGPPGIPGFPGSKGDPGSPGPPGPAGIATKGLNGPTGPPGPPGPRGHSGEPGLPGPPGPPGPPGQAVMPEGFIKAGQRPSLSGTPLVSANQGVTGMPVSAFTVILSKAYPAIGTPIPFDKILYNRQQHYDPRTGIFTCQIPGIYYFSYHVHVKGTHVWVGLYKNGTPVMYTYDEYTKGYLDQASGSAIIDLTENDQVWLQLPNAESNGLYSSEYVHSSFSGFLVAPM
Protocol: Human osteosarcoma cell lines (U2-OS; collagen X producing cell line) were purchased from ATCC (USA) and cultivated in DMEM medium containing 10% FBS, 2 mM L-Glutamine, 100 units/ml penicillin and 100 ug/ml streptomycin. Cells were grown in T25 flasks in a 37° C. incubator at 5% CO2, changing the medium every two or three days. When the cells reached 90% confluency the cell lysates were prepared using RIPA lysis buffer with following procedure: the cell media was removed and the cells washed twice with PBS, followed by adding cold RIPA lysis buffer (25 mM Tris-HCl pH7, 6; 150 mM NaCl, 1% Sodium deoxycholate acid). An EDTA free cocktail tablet was added to the flask then RIPA buffer was distributed to cover the whole surface of flask and incubated on ice for 10 minutes. The cells were scraped and centrifuged at 10,000 RPM at 4° C. for 10 minutes and the supernatants stored at −20° C. until use.
Protein bands were blotted onto a nitrocellulose membrane using the Invitrogen i-Blot gel transfer system according to manufacturer's instruction. The membrane was blocked in blocking buffer (5% skimmed milk in Tris-buffered saline with Tween (TBST)) overnight at 4° C. The monoclonal antibody, NB509-11G8 and commercial collagen type X antibody X53 (for comparison purposes) were applied in a concentration of 1 μg/ml in TBST with 5% skim milk powder and shaken overnight at 4° C. […]

binding result [1]: binds
binding result [2]: no binding
binding result [3]: no binding
binding result (collagen type X alpha 1): binds
B1: monoclonal antibody NB509-11G8 (antibody, mouse IgG1, kappa, V domains shown)
VH: EVQLQQSGAELVKPGASVKLSCTASGFNIKDTHMHWVKQRPEQGLEWIGRIDPANVNTKYDPRFQGRATITADTSSNTAYLQLSRLTSEDTAVYYCATSGSSPWGQGTTLTVSS
VL: DVVMTQTPLSLPVSLGDQASISCRSSQSLVHSNGYTYSNWYLQKPGQSPKLLIYRVSNRFSGVPDRFSGSGSGTDFTLKISRVEADDLGVYFCSQSTHVPWTFGGGTKLEIKR
notes: Mouse IgG1, kappa, from a hybridoma
